Common to all, as to assay: cell-based or functional assay
Assay [1] deals with HIV-1 Env of pseudovirus CAAN.A2 (Acute), clade B (HIV-1).
Assay [2] addresses HIV-1 Env of isolate MGRM-G-017 (clade G pseudovirus) (HIV-1).
Assay [3] concerns the target HIV-1 Env of isolate MGRM-D-028 (clade D) (HIV-1).
Assay [4] concerns the target HIV-1 MGRM-F1-006 Env (pseudovirus) (HIV-1).
The target in assay [5] is HIV-1 APV-13 envelope protein (Env) on pseudovirus (HIV-1).
The target of assay [6] is HIV-1 MGRM-F1-021 Env (pseudovirus) (HIV-1).
The target in assay [7] is HIV-1 IAVI-C3 envelope protein (Env) on pseudovirus (HIV-1).
Assay [8] deals with HIV-1 MGRM-C-024 Env (HIV-1).
The target in assay [9] is HIV-1 Env of isolate MGRM-D-022 (clade D) (HIV-1).
In assay [10] the target is HIV-1 MGRM-C-005 Env (HIV-1).
In assay [11] the target is HIV-1 MGRM-C-015 Env (HIV-1).
Assay [12] deals with HIV-1 98CN006 envelope glycoprotein (Env) on pseudovirus (HIV-1).
Assay [13] has as its target HIV-1 MGRM-C-004 Env (HIV-1).
Assay [14] addresses HIV-1 Env of isolate MGRM-D-016 (clade D) (HIV-1).
The target in assay [15] is HIV-1 MGRM-A-004 envelope glycoprotein (Env) (HIV-1).
The target in assay [16] is HIV-1 Env of isolate MGRM-G-015 (clade G pseudovirus) (HIV-1).
Assay [17] deals with HIV-1 Env of pseudovirus APV_17, clade B (HIV-1).
Assay [18] has as its target HIV-1 MGRM-C-009 Env (HIV-1).
Assay [19] has as its target HIV-1 APV-6 envelope protein (Env) on pseudovirus (HIV-1).
The target of assay [20] is HIV-1 MGRM-A-011 envelope glycoprotein (Env) (HIV-1).

1443_C16 (PG16) (TCN-116) (antibody), sequence (VH): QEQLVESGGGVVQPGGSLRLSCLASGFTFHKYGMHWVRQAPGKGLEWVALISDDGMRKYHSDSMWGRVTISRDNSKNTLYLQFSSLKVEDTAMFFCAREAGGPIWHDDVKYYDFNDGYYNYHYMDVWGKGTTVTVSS
1443_C16 (PG16) (TCN-116) (antibody), sequence (VL): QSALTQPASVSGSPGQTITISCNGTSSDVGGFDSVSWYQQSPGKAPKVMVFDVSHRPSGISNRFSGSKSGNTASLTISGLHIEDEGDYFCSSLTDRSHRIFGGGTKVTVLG

As to 1443_C16 (PG16) (TCN-116) (antibody), the IC50 (µg/ml), pseudovirus neutralization is 8.83 µg/mL in [1]; 0.02 µg/mL in [2]; greater than 50 µg/mL in assay [3]; 0.27 µg/mL in [4]; greater than 50 µg/mL in assay [6]; greater than 50 µg/mL in assay [9]. For the same substance, the IC50 (µg/ml), pseudovirus neutralization in [12] is greater than 50 µg/mL; in assay [14], 0.02 µg/mL; in [15], 0.04 µg/mL; in assay [16] it was 5.33 µg/mL; in assay [17] it was 24.8 µg/mL; in [20], 0.24 µg/mL. For the same substance, the neutralization IC50 was greater than 50 µg/mL in [5], 14.8 µg/mL in [7] and 0.08 µg/mL in [19]. The IC50 is 0.04 µg/mL in [8]; 2.55 µg/mL in assay [10]; 0.26 µg/mL in assay [11]; 5.09 µg/mL in assay [13]; greater than 50 µg/mL in assay [18].

As to 1495_C14 (PGC14) (antibody), the IC50 (µg/ml), pseudovirus neutralization in assay [1] was greater than 50 µg/mL; in assay [2], greater than 50 µg/mL; in assay [3], greater than 50 µg/mL; in assay [4] it was greater than 50 µg/mL; in assay [6], 46 µg/mL; in [9] it was greater than 50 µg/mL. For the same substance, the IC50 (µg/ml), pseudovirus neutralization in [12], in assay [14], in [15], in assay [16], in assay [17] and in assay [20] was greater than 50 µg/mL in each case. The neutralization IC50 is greater than 50 µg/mL in assay [5], greater than 50 µg/mL in assay [7] and 7.41 µg/mL in assay [19]. Also, the IC50 in assay [8], in [10], in assay [11], in [13] and in assay [18] was greater than 50 µg/mL each time.

On to b12 (antibody), for which the IC50 (µg/ml), pseudovirus neutralization in assay [1] is greater than 50 µg/mL; in assay [2], greater than 50 µg/mL; in assay [3], 0.78 µg/mL; in [4], greater than 50 µg/mL; in assay [6], greater than 50 µg/mL; in assay [9], 17.6 µg/mL. Besides, the IC50 (µg/ml), pseudovirus neutralization in assay [12] was greater than 50 µg/mL; in [14] it was 1.12 µg/mL; in [15], greater than 50 µg/mL; in assay [16] it was greater than 50 µg/mL; in [17] it was greater than 50 µg/mL; in assay [20] it was 4.01 µg/mL. In addition, the figures for the neutralization IC50 in assay [5], in assay [7] and in assay [19] were greater than 25 µg/mL, 5 µg/mL and greater than 25 µg/mL, respectively. Moreover, the IC50 is greater than 50 µg/mL in [8]; 2.66 µg/mL in assay [10]; 13.3 µg/mL in assay [11]; 5.46 µg/mL in assay [13]; greater than 50 µg/mL in assay [18].

Values taken from patent US20200024330A1.
